Laboratory results published in the Human Domainome abundance scans (Beltran et al. 2025).
± gives the uncertainty stated by the source.

B1: WW domain-binding protein 4, residues 8 to 43; numbered along this chain, O75554 (parent)
chain: QPKKFCDYCKCWIADNRPSVEFHERGKNHKENVAKR

Variants of: B1
Assay: abundance fitness (aPCA) (normalised: wild type 0, dead -1); higher = more abundant; growth selection in yeast, the domain comes from the species named
Settings: Homo sapiens

In order of rising abundance fitness:
1. QPKWFCDYCKCWIADNRPSVEFHERGKNHKENVAKR [K4W]  -1.03 ± 0.075
2. QPKKFCDYCKCWIADNRPSVEFHERGKNHKENVACR [K35C]  -0.951 ± 0.32
3. QPKKFCDYAKCWIADNRPSVEFHERGKNHKENVAKR [C9A]  -0.787 ± 0.073
4. QPKKFCWYCKCWIADNRPSVEFHERGKNHKENVAKR [D7W]  -0.649 ± 0.12
5. QPKKFCDYEKCWIADNRPSVEFHERGKNHKENVAKR [C9E]  -0.603 ± 0.098
6. QPKKFCDYCKCWIADNRPRVEFHERGKNHKENVAKR [S19R]  -0.574 ± 0.063
7. QPKKFCDYCKCWIADNRPSVEFHERGKNWKENVAKR [H29W]  -0.481 ± 0.11
8. QPKKFCDYCKCWIADNRPSVEFHERGKNCKENVAKR [H29C]  -0.464 ± 0.25
9. QPKKFCDYCKCWIADNRPSVEFHERGKNNKENVAKR [H29N]  -0.444 ± 0.099
10. QPKKFCDYCKCCIADNRPSVEFHERGKNHKENVAKR [W12C]  -0.437 ± 0.097
11. QPKKFCDYCKCWIADNRPSVEFHEPGKNHKENVAKR [R25P]  -0.428 ± 0.072
12. QPKKFCDYCKCWIADNRPSVEFHERGKNHYENVAKR [K30Y]  -0.391 ± 0.15
13. QPKKFCDYCKCWIADNRPKVEFHERGKNHKENVAKR [S19K]  -0.379 ± 0.097
14. QPKKFCDYCKCWIADNRPSVEFHEYGKNHKENVAKR [R25Y]  -0.357 ± 0.14
15. QPKKFCDYCKCWIADNRPSVEFHERGKNVKENVAKR [H29V]  -0.349 ± 0.12
16. QPKKFCDYCKCWIADNRPSVEFHERGKNHKNNVAKR [E31N]  -0.346 ± 0.23
17. QPKKFCDYCKCWIADNRPSSEFHERGKNHKENVAKR [V20S]  -0.336 ± 0.081
18. QPKKFCDYCKCWIADNRPSVEFHERGKNEKENVAKR [H29E]  -0.325 ± 0.11
19. QPKKFCDYCKCWIADNRPSVEFHERGKNHKENPAKR [V33P]  -0.315 ± 0.1
20. QPKKFCDYCKCWIADNRPSVEFHERGKNHKENVAKQ [R36Q]  -0.304 ± 0.2
21. QPKKFCYYCKCWIADNRPSVEFHERGKNHKENVAKR [D7Y]  -0.286 ± 0.33
22. QPVKFCDYCKCWIADNRPSVEFHERGKNHKENVAKR [K3V]  -0.279 ± 0.065
23. QPKKFCDYCKCWIADNRPHVEFHERGKNHKENVAKR [S19H]  -0.269 ± 0.29
24. QPKKFCDYCKCWIADNRPEVEFHERGKNHKENVAKR [S19E]  -0.245 ± 0.074
25. QPKQFCDYCKCWIADNRPSVEFHERGKNHKENVAKR [K4Q]  -0.245 ± 0.085
26. QPKKFCDYCKCEIADNRPSVEFHERGKNHKENVAKR [W12E]  -0.238 ± 0.083
27. QPKKFCDYCKCWIADNRPSVEFHERGKNHKENTAKR [V33T]  -0.23 ± 0.1
28. QPKKFCDYCKCWIADNRPSVEFHERGPNHKENVAKR [K27P]  -0.226 ± 0.11
29. QPKKFCDYCKCWIADNRPSVEFHERGKNHKENDAKR [V33D]  -0.22 ± 0.098
30. QPKKFCDYCKCWIADNRPSVEFHERGKNHKENGAKR [V33G]  -0.22 ± 0.058
31. QPKKFCDYCKCDIADNRPSVEFHERGKNHKENVAKR [W12D]  -0.219 ± 0.079
32. QPKKFCDYCKCWIADNRPSVEFHERGKNHKENVALR [K35L]  -0.212 ± 0.086
33. QPKKFCLYCKCWIADNRPSVEFHERGKNHKENVAKR [D7L]  -0.209 ± 0.12
34. QPKKFCDYCKCWIADNRPNVEFHERGKNHKENVAKR [S19N]  -0.204 ± 0.11
35. QPKKFCDYCKCWIADNRPSVEFHERGKNHKENQAKR [V33Q]  -0.195 ± 0.12
36. QPKKFCDYCKCWIADNRPSVEFHERGDNHKENVAKR [K27D]  -0.192 ± 0.098
37. QPKKFCDYCKCWIADNRPSWEFHERGKNHKENVAKR [V20W]  -0.189 ± 0.077
38. QPKKFCDYCKCWIADNRPSTEFHERGKNHKENVAKR [V20T]  -0.183 ± 0.12
39. QPKKFCGYCKCWIADNRPSVEFHERGKNHKENVAKR [D7G]  -0.173 ± 0.069
40. QPKKFCDYCKCWIADNRPSVEFHERGKNHKENVCKR [A34C]  -0.135 ± 0.1
41. QPKKFCDYCKCWIADNRPSVEFHERGKNHKENVAVR [K35V]  -0.129 ± 0.078
42. QPPKFCDYCKCWIADNRPSVEFHERGKNHKENVAKR [K3P]  -0.119 ± 0.076
43. QPKKFCDYCKCWIADNRPSVEFHERGMNHKENVAKR [K27M]  -0.115 ± 0.12
44. QPKKFCDYCKCWIADNRPSVEFHERGKNHKENVRKR [A34R]  -0.11 ± 0.061
45. QPKKFCDYCKCWIADNRPSVEFHERGKNHKENVAQR [K35Q]  -0.093 ± 0.1
46. QPKKFCDYCKCWIADNRPSVEFHERGRNHKENVAKR [K27R]  -0.08 ± 0.061
47. QPKKFCDYCKCWIADNRPSVEFHERGKNHKENMAKR [V33M]  -0.074 ± 0.34
48. QPKKFCDYCKCTIADNRPSVEFHERGKNHKENVAKR [W12T]  -0.066 ± 0.079
49. QPKKFCDYCKGWIADNRPSVEFHERGKNHKENVAKR [C11G]  -0.059 ± 0.065
50. QPKKFCDYCKCWIADNRPSVEFHESGKNHKENVAKR [R25S]  -0.037 ± 0.073
51. QPKKFCDYCKCWIADNRPSVEFHERGKNHKENVGKR [A34G]  -0.036 ± 0.061
52. QPKKFCDYCKCWIADNRPSVEFHERGQNHKENVAKR [K27Q]  -0.032 ± 0.096
53. QPDKFCDYCKCWIADNRPSVEFHERGKNHKENVAKR [K3D]  -0.025 ± 0.12
54. QPKKFCDYCKCWIADNRPSMEFHERGKNHKENVAKR [V20M]  -0.015 ± 0.4
55. QPKKFCDYCKIWIADNRPSVEFHERGKNHKENVAKR [C11I]  0.002 ± 0.098
56. QPKKFCDYCKCWIADNRPSVEFHERGKNHKENVAKC [R36C]  0.005 ± 0.14
57. QPKKFCDYCKCWIADNRPSVEFHERGANHKENVAKR [K27A]  0.026 ± 0.069
58. QPKKFCDYCKCWIADNRPSVEFHERGKNHEENVAKR [K30E]  0.053 ± 0.07
59. QPKKFCDYCKCQIADNRPSVEFHERGKNHKENVAKR [W12Q]  0.077 ± 0.12
60. QPKKFCDYCKCWIADNRPSVEFHEAGKNHKENVAKR [R25A]  0.078 ± 0.064
61. QPKKFCDYCKCWIADNRPSVEFHERGKNHIENVAKR [K30I]  0.085 ± 0.084
62. QPKKFCDYCKCIIADNRPSVEFHERGKNHKENVAKR [W12I]  0.139 ± 0.15
63. QPKKFCDYCKCWIADGRPSVEFHERGKNHKENVAKR [N16G]  0.151 ± 0.055
64. QPKKFCTYCKCWIADNRPSVEFHERGKNHKENVAKR [D7T]  0.154 ± 0.13
65. QPKKFCDYCKCPIADNRPSVEFHERGKNHKENVAKR [W12P]  0.188 ± 0.22
66. QPKKFCDYCKCWIADNRPSVEFHERGKNHTENVAKR [K30T]  0.201 ± 0.099
67. QPKKFCDYCKCWIADNRPSVEFHERGKNHKENVAKP [R36P]  0.211 ± 0.15
68. QPKKFCDYCKCWIADNRPSVEFHERGKNHKENVAKE [R36E]  0.245 ± 0.094
